The test system of the series is K4 kissing-loop RNA reporter. Put plainly: apparent KD of K4 kissing-loop reporter; higher = weaker reporter binding. The following applies: Eterna round: R107. The protocol:
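RNA-MaP round R107: designed RNA switches with theophylline, tryptophan, arginine or FMN aptamers are transcribed on-chip within common flanks. They are titrated with a labelled K4 kissing-loop RNA reporter in RNA-MaP buffer (100 mM Tris pH 7.5, 80 mM KCl, 4 mM MgCl2), without ligand or with the indicated ligand. Median apparent KD per design.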

Where [1] appears, read: input ligand: theophylline 20 uM.
Where [2] appears, read: input ligand: tryptophan 2.4 mM.
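Further: bound reporter read as fluorescence of individual clusters on recovered sequencing chips by microscopy, with normalized cluster intensities fitted with a binding model.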

For the sequence “AUUAUAAAGUCGGCCGCCACUGAGAGUAGUGAUGUUACUCUAUUCCUUUACAUAUUAUAGUUUAUCAGGACCGGGACAUCAGAUU [JR_ExcTryptoB_Sub018]”, the “apparent KD of K4 kissing-loop reporter” value is 268 nM (input ligand: FMN 200 uM); 214 nM (input ligand: arginine 13.2 mM); 279 nM (input ligand: none); 246 nM under setting [1]; 199 nM under setting [2].

For “AUUAUAUAAUGGAGUGAUGUUCCAUCAGAUACCAGUGAAUUUGAACACCCUUGGCAGCUGUUGUUCAAAUAAUUUAAAUCCUUUA [JR_SSTheophyA_Sub019]”, the “apparent KD of K4 kissing-loop reporter” value reads like this: (input ligand: FMN 200 uM) 129 nM; (input ligand: arginine 13.2 mM) 150 nM; (input ligand: none) 132 nM; under setting [1], 166 nM; under setting [2], 103 nM.

Regarding “AUUCGUUUAUGUGAUACCAGACUUUGCAGUGAUGUUGCAUUAAUUUUUGAUUAUUAGUUUGUCCCUUGGCAGCACUAUUUAUUUA [JR_SSTheophyB_Sub004]”, the “apparent KD of K4 kissing-loop reporter” value by setting is: (input ligand: FMN 200 uM) 40.2 nM; (input ligand: arginine 13.2 mM) 81.5 nM; (input ligand: none) 44.8 nM; under setting [1], 80.1 nM; under setting [2], 36.6 nM.

“AUUCUGUUUUUAAUGUUUAUUGUAUAAUGGCAGGAUAUCGUAGAAGCGAGAAGGGCUUUUAUGCGUUAUGAGUGAUGUUUGUAGG [dhhyfvmullin]”: the “apparent KD of K4 kissing-loop reporter” value (input ligand: FMN 200 uM) was determined as 364 nM; the “apparent KD of K4 kissing-loop reporter” value (input ligand: arginine 13.2 mM) was found to be 247 nM; the “apparent KD of K4 kissing-loop reporter” value (input ligand: none) came to 267 nM; the “apparent KD of K4 kissing-loop reporter” value under setting [1] turned out to be 410 nM; the “apparent KD of K4 kissing-loop reporter” value under setting [2] was 270 nM.

With “AUUUAAUUAACUGAUACCAGACUUUUUGUUUUGUUUAUUACUAGUGAUGUUAGUGUUUCUGUCCCUUGGCAGCAGUAUCUACUUA [JR_ExcTheophyB_Sub015]”, the “apparent KD of K4 kissing-loop reporter” value (input ligand: FMN 200 uM) turned out to be 134 nM; the “apparent KD of K4 kissing-loop reporter” value (input ligand: arginine 13.2 mM) was 202 nM; the “apparent KD of K4 kissing-loop reporter” value (input ligand: none) amounted to 131 nM; the “apparent KD of K4 kissing-loop reporter” value under setting [1] turned out to be 239 nM; the “apparent KD of K4 kissing-loop reporter” value under setting [2] was 122 nM.

Turning to “AUUUAGACGAGUGAUGUUCGUGUUAUUACAGAGGAUAUGCGUAAUUGCAGAAGGCUGUAUUUAUAUAUGUUAUGUAAUUUUAAAA [JR_ExcFMNA_Sub007]”, the “apparent KD of K4 kissing-loop reporter” value came to 89.5 nM (input ligand: FMN 200 uM); 108 nM (input ligand: arginine 13.2 mM); 88 nM (input ligand: none); 99.4 nM under setting [1]; 73.2 nM under setting [2].

Take “AUUUGUUACCUUAUAGGAGUGAUGUUCUUGCGAGGACCGGUACGGCCGCCACUCGCGCUGGCGCCUAGCCUCGGACCGUUAAUUC [theeternabot_exclusion_KL_Trp_A_25]”: the “apparent KD of K4 kissing-loop reporter” value reads like this: (input ligand: FMN 200 uM) 582 nM; (input ligand: arginine 13.2 mM) 325 nM; (input ligand: none) 635 nM; under setting [1], 497 nM; under setting [2], 431 nM.

For the sequence “AUUUUAUUAACUGAUACCAGACUUAAUGAUUUGUAAAUUACUAGUGAUGUUAGUGAUUCUGUCCCUUGGCAGCAGUAUUUAUUUA [JR_ExcTheophyB_Sub013]”, the “apparent KD of K4 kissing-loop reporter” value is 76.2 nM (input ligand: FMN 200 uM); 85.6 nM (input ligand: arginine 13.2 mM); 79.2 nM (input ligand: none); 87.6 nM under setting [1]; 69.4 nM under setting [2].

In the case of “AUUUUCAUUUUAUUAUAUAACUUUUCAGAAGGAGCGUGGAAGUUCACAGGUAGGUCGCUGAAUAUUGGACUAGUGAUGUUAGUUA [JR_Nu_SSArginiA_Sub022]”, the “apparent KD of K4 kissing-loop reporter” value reads like this: (input ligand: FMN 200 uM) 202 nM; (input ligand: arginine 13.2 mM) 244 nM; (input ligand: none) 230 nM; under setting [1], 259 nM; under setting [2], 207 nM.

For the sequence “AUUUUGGUUUAGAGUGAUGUUCCUUGUAUUCGAGGACCGGUACGGCCGCCACUCGAAUAGAAAAGAAAAGAAAUGUGUGAUGUUU [BDazzled - #5 SS Tryptophan A]”, the “apparent KD of K4 kissing-loop reporter” value (input ligand: FMN 200 uM) came to 772 nM; the “apparent KD of K4 kissing-loop reporter” value (input ligand: arginine 13.2 mM) was 611 nM; the “apparent KD of K4 kissing-loop reporter” value (input ligand: none) turned out to be 900 nM; the “apparent KD of K4 kissing-loop reporter” value under setting [1] came out at 764 nM; the “apparent KD of K4 kissing-loop reporter” value under setting [2] worked out at 567 nM.

For the sequence “AUUUUGGUUUAGAGUGAUGUUCCUUGUAUUCGAGGACCGGUACGGCCGCCACUCGGGUAGAAAAGAAAAGAAAUGUUUGAUUUUU [BDazzled - #9 SS Tryptophan A]”, the “apparent KD of K4 kissing-loop reporter” value by setting is: (input ligand: FMN 200 uM) 282 nM; (input ligand: arginine 13.2 mM) 102 nM; (input ligand: none) 210 nM; under setting [1], 222 nM; under setting [2], 290 nM.

Consider “AUUUUUUUAUCAGGAUAUUAGUGUUGGUUUGUUUUGUUAGUGAUGUUGAUAUUUGUUUUAUGUAUUUAAGAAGGGAUUUAGAUGU [viuupullin]”, for which the “apparent KD of K4 kissing-loop reporter” value is, setting by setting: (input ligand: FMN 200 uM) 270 nM; (input ligand: arginine 13.2 mM) 243 nM; (input ligand: none) 270 nM; under setting [1], 371 nM; under setting [2], 194 nM.

In the case of “AUUUUUUUGUCAGGAUAUUAGUGUUGGUUUGGUUUGUUAGUGAUGUUGAUAUUUGUUUUAUGUAUUUAAGAAGGGAUUUAGCUGU [ppdemullin]”, the “apparent KD of K4 kissing-loop reporter” value came to 391 nM (input ligand: FMN 200 uM); 359 nM (input ligand: arginine 13.2 mM); 346 nM (input ligand: none); 427 nM under setting [1]; 278 nM under setting [2].

For “CAACAUCACAACUUCUUCGUCCUAGAAGACUAGGAUAUCAGGAAACUGAGAAGGAGUCUCUGCAGUGAUGUUGCAGCUAGGACGA [[K]'-[F2]'-[F1]'-[F1]-[F2]-[K1]-[K2]-[F]''_Design2b]”, the “apparent KD of K4 kissing-loop reporter” value is, setting by setting: (input ligand: FMN 200 uM) 231 nM; (input ligand: arginine 13.2 mM) 216 nM; (input ligand: none) 185 nM; under setting [1], 266 nM; under setting [2], 219 nM.

Turning to “CACCAUGAAUUCUCUAGGAGUGAUGUUUUUCGAGGACCGGUACGGCCGCCACUCGGACGAGGAACGUGGGAGCGGCGAAAAGACU [xzzmullin]”, the “apparent KD of K4 kissing-loop reporter” value is, setting by setting: (input ligand: FMN 200 uM) 70.6 nM; (input ligand: arginine 13.2 mM) 64 nM; (input ligand: none) 285 nM; under setting [1], 83.9 nM; under setting [2], 121 nM.

Consider “CACCAUGAAUUCUCUAGGAGUGAUGUUUUUCGAGGACCGGUACGGCCGCCACUCGGACGAGGACCGUGGGAGCGGCGAAGCGACU [wwegmullin]”, for which the “apparent KD of K4 kissing-loop reporter” value is 234 nM (input ligand: FMN 200 uM); 148 nM (input ligand: arginine 13.2 mM); 109 nM (input ligand: none); 1070 nM under setting [1]; 101 nM under setting [2].

These data come from the supplement of paper PMC9170038.
